# Measured values from PMC12650144, “Interactive Role of the DHPR β1a SH3 Domain in Skeletal Muscle Excitation–Contraction Coupling” (Biomolecules, 2025).
# Columns and labels:
# Assay in all cases: other fluorescence titration; tryptophan fluorescence quenching: intrinsic fluorescence of the β subunit or β1a-SH3 domain in the cuvette (sub-micromolar; 50 nM β1a-FL for the AID titration) monitored while titrating the II-III loop or peptides; excitation 280 nm, emission 340 nm; corrected for dilution and intrinsic fluorescence of the titrant; nonlinear regression
# [1] = biological target: DHPR β1a subunit, full length (mouse) (UniProt Q8R3Z5)
# [2] = biological target: DHPR β1a SH3 domain (β1a residues V101-P272) (mouse) (UniProt Q8R3Z5)
# [3] = biological target: β1a/β2a RT loop chimera, HE to PG mutant (mouse)
# [4] = biological target: β2a HE to PG mutant (mouse) (UniProt Q8CC27)
# Sequence of DHPR β1a SH3 domain (β1a residues V101-P272) (mouse) (Q8R3Z5 other isoform, or with tags, fused parts or gaps): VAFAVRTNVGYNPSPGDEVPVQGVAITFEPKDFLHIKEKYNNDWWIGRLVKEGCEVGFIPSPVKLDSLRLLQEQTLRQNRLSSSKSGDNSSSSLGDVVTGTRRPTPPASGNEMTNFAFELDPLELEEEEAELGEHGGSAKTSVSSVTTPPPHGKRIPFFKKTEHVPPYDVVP
# Sequence of DHPR β1a subunit, full length (mouse) (Q8R3Z5 other isoform, or with tags, fused parts or gaps): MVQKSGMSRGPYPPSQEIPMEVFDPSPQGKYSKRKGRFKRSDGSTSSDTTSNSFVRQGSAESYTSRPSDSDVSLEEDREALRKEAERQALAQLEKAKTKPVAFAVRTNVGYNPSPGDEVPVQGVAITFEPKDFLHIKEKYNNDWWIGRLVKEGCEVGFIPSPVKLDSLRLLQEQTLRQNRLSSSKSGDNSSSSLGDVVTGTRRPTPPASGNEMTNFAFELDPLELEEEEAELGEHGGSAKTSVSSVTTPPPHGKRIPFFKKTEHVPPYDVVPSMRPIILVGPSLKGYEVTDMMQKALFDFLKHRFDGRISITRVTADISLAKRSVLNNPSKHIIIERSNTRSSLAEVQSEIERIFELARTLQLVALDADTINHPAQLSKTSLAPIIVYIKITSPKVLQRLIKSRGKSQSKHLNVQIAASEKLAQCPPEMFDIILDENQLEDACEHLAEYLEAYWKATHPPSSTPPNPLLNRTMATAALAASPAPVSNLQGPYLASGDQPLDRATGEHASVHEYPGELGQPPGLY
# Sequence of α1s II–III loop C region peptide (residues 720–765) (P07293 720-765): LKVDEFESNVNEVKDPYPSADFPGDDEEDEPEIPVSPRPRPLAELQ
Substance,Kd [1],Kd [2],Kd [3],Kd [4]
sP1 D⟶E mutant (from UniProt P07293 733-745) (peptide),15 µM,17 µM,,
sP1 F⟶T mutant (from UniProt P07293 733-745) (peptide),4.6 µM,4.6 µM,,
sP1 P⟶T mutant (from UniProt P07293 733-745) (peptide),22 µM,19 µM,,
α1s C binding peptide 2 (from UniProt P07293 748-764),5.4 µM,3.8 µM,,
α1s II–III loop C region peptide (residues 720–765) (from UniProt P07293 720-765),,,8.7 µM,10.4 µM

# The remaining substances from weak to strong by Kd [1], led by results:
Kd [1],Kd [2],Kd [3],Kd [4],Substance
4.5 µM,2.3 µM,,,sP1 A⟶P mutant (from UniProt P07293 733-745) (peptide)
3.6 µM,2.6 µM,,,α1s C binding peptide 1 (from UniProt P07293 733-745)
0.0152 µM,,,,DHPR α1s I-II loop AID peptide
